Here are results for 22 sequences from the DeepSol protein solubility set.

This data set in a line: soluble on expression in E. coli; label from the status in PepcDB or PDB records.
For the sequence “MGSDKIHHHHHHMIQRRETFLNNVAEKLGRGRRTAGVKRPDYTVKPQFEVMKEHSSDQLVNVLSEQCTKIHTDVKQTKVDRLEQAIDNVLEEYSARNVITWNDPRFDQFGLTSFLQREQVEVWDHTEGERLVEKAEQADIGITFADYTLAESGTVVLLSGNGKGRSVSLLPTYYIAIIPKSTLVPRMSQVTRELHLKAASGERLPSCINFISGPSNSADIEMNLVVGVHGPIRACYIVVEDR”, the “soluble on expression in E. coli” value is on record as “not soluble”.
Under “MGSDKIHHHHHHMPADSVRPTWSLTDIPYATIEKEKIIGNTDWFYLLAGASFVETLSDLYTRNLVEYYQENVGATTWLRQEWEMEEVQHGHALRRYVLFVWPDFDWERAYQGFVTAYAPCCRTELLGPTHALEMASRCVVETGTASFYTMIQAASPEPVLRQIAAHIRADEVHHYKYFYRIFRQYQAAEKNSRWRIGRELWKRVAEAEQEDSYLAIKNAFEVKNPGEKFFIEDFAAFRKRIGGWVDRYYPFDMAIKMLLKPVALPPMLQRAALPLLSHGARRAILG” stands “not soluble”; under “DIIITAGGKNITPAEIESRLKFSHYISDAVIVGDKRKFLTCLIMIDQENVEKFAQDRKVPFSNFASLCAAKEVRELIAAEVAQVNKEFARVEQIKDFRLIDVLLTAEDDELTATMKLKRSFVEKKHAHLIEDMYK”, “soluble”; under “MGSDKIHHHHHHMNILLVYKEDYPWDVRVEKIALSLISRGHDVTIVARNRQCSKTTETVNGIEIVRLPALFKPDGLLNKLLNLPVWFNPFWIWTLRSALRGKPGALIIVRDLPLVKTALLVARGARAKIMLDMAEVYPYMYESGRQFSKGTNFESMIKSPALAARYEAKVLPKIDHTLVMIEESRDRLLQMGLSPQRVSIVSNTPPLDKFSGNTHQHQGRKLRLVYVGFLTKLRGLDLLIEAAYEYVKLGNEPSSLKIDIVGKGAEREHLIALVRDLKLEESVTIHGWLDHQRVDELMAQANVGALTYRVCPHWNHTIPNKIFDYMLAGLPVLATEVTPINRIINETKSGLVCRDLDIRDIAEKLQTLRCPELRSTLGNNGVNAVRAKYNWANDEQRLHAAVNSIAP”, “not soluble”.
Under “MGSDKIHHHHHHMSNTNDLLNRINAKYSTMSKGHKLLATYITDNYDKAVFLTAAKMGETVGISESTVVRFATSLGYKGYPDFQKALEELVRNKLNSVQRMEVTYGRISQSQILETVLQSDRDKIKTTLEKIDADAFDLAVDTILQSRKIYIVGIRSCAPLASFLAFYMNLMFEDVCLLTTNSSSELFEQMVRIGKDDVIIGISFPRYSMRTLKALEFANNRSAKVITITDSIHSPMNLYSSCNLIADSDMASIVDSLVAPLSVINALIVALCMKKQNIVAKTLTELEDIWNEYQVYENDEIDYIDDSIKVHYAKLGDSQDE” stands “not soluble”; under “MAQLQKDAQENECRELIEVPSGHDYQIRQYIEKYPQFLWKYSEGVTIPGYVLNIAEQLNSEYGNVENIPIDLYPCEYYRIVEHSMPTDIGLQPKRFDRIKENLTEKLQQVFRHQDADLYMPENHLIPTVACAVCIQGTWYRGKIENVPPRGIWMYVNLIDAGMSRQVMKSDVRRLPLAFGHYPPMVVKATIRGAVIHRMDRGKVDQFQNMIRNIDYLARCQITTCTEPFQIVLCHPKYEFMNMCSFLLAPRRGQPSQEGVWIPREIAKQLERENGFERNDYDDSGADSDFLEDEEEEDAGWDYGEGDDYAYLRSFPPACKIFRMSEDEFMVERIENERIIYLTSKDMLERRREAEEYLTKEKESLESLPDVWMAYGTSCSVFHQGTMKRASCCGEEGSTIQLLLIDYGISIEVSKSDVYNIPNKDEVNMEPFVTLVSIKSFPFIHYSRVKILQELLPRGTPVKFHRDRKCKEIPTKGEIYQMNGTSVEQSVSEIVSSCQLDLECNSLLPSRIANNELTQLLAYCINYEFMYKSPNVVIYKKSKRVKSHF”, “not soluble”; under “MILKLKYYREAMNLTQEELARHAKVSVAMVQSMENGRRKGSTDTILKLSDALNVTVDDLLRGNNMTISHKKETSK”, “not soluble”.
In the case of “MSLVGDVYLGVGSASSEYWAAYIEGAKAVASSLGKDVNVIPSEFDGQKLLEQFGAVFAAGCEDCVVTVDPASNAFTKAMIERADTAGAKYVNLWNRPDEIHPWDTVPNTWIANISFDGVDSGYQNGMALCNALGGKGNIVALNGIPDNPPAKQRIAGLHKALQECPGLKLLDTQVGNWDQTQGQSITRAWLAKYGDELNGIFSANDGMALGAVAALREKGLVGKILVTGSDGSSDVIKLIEKGEMLSTMHIDGYVQGAYAVALAAAAVKGDIKMDELKQDQRDFFLSQTLVTKDNAASVLNSKEGHHHHHH” it was “not soluble”; in that of “MGHHHHHHSHMEDLLDLDEELRYSLATSRAKMGRRAQQESAQAENHLNGKNSSLTLTGETSSAKLPRCRQGGWAGDSVKASNGTQTGKQQLDLNACYHKTHHRNLGLASLEEADIPIIPDLEEVQEEDFVLQVAAPPSIQIKRVMTYRDLDNDLMKYSAIQTLDGEIDLKLLTKVLAPEHEVREDDVGWDWDHLFTEVSSEVLTEWDPLQTEKEDPAGQARHT”, “soluble”.
Turning to “MICWGEQKRQADPGFFCRKIVEGVSQPIWLVSDTRRTSDIQWFQEAYGAVIQTVRVVASEQSRQQRGWVFTPGVDDAESECGLDNFGNFDWVIENHGDEQCLEDQLEHLLGFIQAKL”, the “soluble on expression in E. coli” value is on record as “not soluble”.
Under “MEKLVAYKRMPLWNKQTMPEAVQQKHNTKVGTWGKITVLKGALKFIELTEEGEVLAEHLFEAGADNPMAQPQAWHRVEAATDDVEWYLEFYCKPEDYFAKKYNTNPVHSEVLEAMQTVKQGKALDLGCGQGRNSLFLAQQDFDVTAVDQNGLALEILQSIVEQEDLDMPVGLYDINSASIEQEYDFIVSTVVLMFLQADRIPAIIQNMQEKTSVGGYNLIVCAMDTEDYPCSVNFPFTFKEGELADYYKDWELVKYNENPGHLHRRDENGNRIQLRFATLLAKKIK” stands “not soluble”; under “MSQIISTLNNIDLVTQDKVNLISNMQIQAKYENAEYKSFIDQLIDNLNTTRSIDIYNLFLSLNSEICLNLDTVDNISKIISSYLSILNTNFTRISPSESKQKNQLAEKGINKFLVTMDANFAQMQNQDKLLPNNIDSIIEIVQEVIIFFEKNNLNYNSDFKIQLNKTLRKIKSSLILKDQKNDTYSDKESINQVEATITDQKTIQGSEKWKTLIEKIEVLKALVESERIFETSIVYNDIQNLLVNFDPKEYFPEIFFPLYKKIAPFIGNIHKNIDYYSSSIQWSIAQKMYNIDYKSFLDTLEKMPENNFLNSSSDITKNFFYETSSEVEKTPIEEHKIIADTDAIKEEIVIKQRTNNKKNQNDPVEKISNKIDEDYFEDLFDI”, “not soluble”; under “MAGRVPRLTGHCSILSRTYGHSLMDLAALRFYIAPGKKPVIAAGMPWYMALFGRDSLITSYQCCFIAPDIAFNTLRNLANLQGKEYNYFKDEEPGKILHELRFGEKTLLGKKPYSPYFGSADTCQLFLILLHEVFKWTGNKEFVNEFKEPALKALYWIDNFGDMDGDGYVEYKKRSKEGLDNHCWKDSGTSMIFSDSRLAEAPIATVEFQGYIYDAKIRLAELAEEVWDDPSFAEELRNQAKELKRRFNRDFWIEDRGGYFALGLDKNKEKIDSMTSNMGHLLWSGIVEDDRAGIIVKQLMSRDLYNGWGIRTLSSHDRGYNPIEYHNGTVWPHDNSLIAEGFIKYGYRDEANRIITNLLEASQYFDSRFPEVFAGYQRTEVDFPVSYPTSSIPQAWAAGASMLFLRLILGLEPDRKSQSIKIDPYLPQVIEDICVENIRLFNKKFSVFAGKGRSEIKLSEMAGDPLEHHHHHH”, “not soluble”.
As for “MNVAAILLAAGKSQRMGLCKQLLQLADRPAVAHCLDTLTAVGLQEIIVVVSPGGDEVAAAVSRYPVVVAVNESDSCDMADSARTGLARLISDPTGVLVALADHPLVRPDTVRALVNRHGEEPDAILIPVHDGAKGHPTLFPAAILQEIGQVATLRDIIGRHRDKVRLVPVADEGVVMDMDVWEDYLAMAERLNPPGLEHHHHHH”, the “soluble on expression in E. coli” value is listed as “soluble”.
In the case of “MSLAQLPSELLSLQLPLRIRIGDAQAFDLGPDPQVTMVIRDPTLLTEITHPSLDALGKAYVEKRLDIEGPISQVIGIGDALSEALGDPDGEASPVRESHDKATDAEAIHYHYDLSNDFYRLWLDPEMVYSCAYFETGREDLATAQLAKLRHLCRKLRLQPGEKLLDVGCGWGGLARLAAREFGVEVTGITLSKEQLALGQERVRAEGLEDRVTLKLLDYRDLPRDGRFDKVVSVGMFEHVGHANLGLYFQQLYDAVRPGGLVMNHGITSLYTDGRPVGKGAGDFIDRYVFPHGELPHLSLAVARMSEAGLEVVDVESLRLHYARTLDFWSANLEAKLKEAARLVPEETLRIWRLYLAGCAYGFKRGWINLHQILANRPHEDGSHELPWSRRDLYAEGHHHHHH” it was “soluble”; in that of “MSLARRHELSIALILQDKFTIAAFSGFIDALRLAADDAAKSRQIRVAWKVFAQHRSPVMASCGLRVATEDGLPVPEDYDYIAICGGNSFADAAPAPQLAQLIQRAHRARVGLLGICTGSFAIARAGLIGDRRFCIHWNVAEPFKALFPRAQISVDRIFIDEGDVITCAGSTAAIDLALYLVMRHCGQDRAQQVMRHMMLSQMRPATMPQAHFYQLPPGDSHPRLRRALHFMEQQLDHPPSVGAIARYCGVSVRQLERIFLQALGQTPNAAFRQMRLNYGRYLLSAGTLPVTEIAHIAGFSDAAHFSREFRRAFHETPSAHRRARSHGPDEGHHHHHH”, “soluble”.
Consider “MNELKNAQTASAHRILLPLLRCIASGAADVTEEGNEIVLRRKRPGQAVQRFPTETVRLAVSSGLLEWRQNSLSAAPPLASYLKRATAKDRDEVFQEQHRDIQTVVVEIDETKQPARRNLNTAPLTSLSRLKERDGSAFFPEDALAAGERLAADFHRGHLNPRVTATWEPRIASRGKGEAGGALDLTEAAMAARARFSRAADAMGPELSGVAIDICCFEKGLETVERERLWPARSAKLLLRAALLSLARHYAPPVPPARGKDRPKERHWGDADYRPSLR”, for which the “soluble on expression in E. coli” value is given as “not soluble”.
In the case of “GSHMSYADSSRNAVLTNGGRTLRAECRNADGNWVTSELDLDTIIGNNDGHFQWGGQNFTETAEDIRFHPKEGAAEQPILRARLRDCNGEFHDRDVNLNRIQNVNGRLVFQ” it was “soluble”; in that of “MPITIGRGFLKSEMFSQSAISQRSFFTLLWEKIKDFFCDTQRSTADQYIKELCDVASPPDAQRLFDLFCKLYELSSPSCRGNFHFQHYKDAECQYTNLCIKDGEDIPLCIMIRQDHYYYEIMNRTVLCVDTQSAHLKRYSDINIKASTYVCEPLCCLFPERLQLSLSGGITFSVDLKNIEETLIAMAEKGNLCDWKEQERKAAISSRINLGIAQAGVTAIDDAIKNKIAAKVIENTNLKNAAFEPNYAQSSVTQIVYSCLFKNEILMNMLEESSSHGLLCLNELTEYVALQVHNSLFSEDLSSLVETTKNEAHHQSLEHHHHHH”, “not soluble”; in that of “MPAIKSSADLRNNYNEISTFCHNYPEPVFITKNGKGDLAVMSIEAYEGLTSRFELYSQIKEGMDDIATGNTRPFSEAMADIRSRRSRLEHHHHHH”, “not soluble”.
In the case of “MEERILDRLAALDPDLMAYIRDFAYDTVYERPGLDLKTKELLASVLLVSLGSPDELKTHLRGALRAGATEQEVREALLLCVPYLGFPRTVAAFSQLQS” it was “soluble”.
In the case of “MSTEQPERADRLLAAAQRRGHERVEARDFGEAILAEVHCPRYLDFLKNGYAQWRALPGASQEITPHVHPPREESGYPVSIIGRAGFHIADTSSPMGPHTWEAALAASHSACTAAQLVIEGAPAAYSLSRPPGHHATRDRAGGFCFLNHTAVAAQWLRHHVARVAILDVDVHHGNGTQDIFYERDDVLHVSLHADPAYFYPFFTGYAQETGRGIGAGCNLNLPLPIGTDDEAFLAALRIACRRVLDFKPDVVVVALGLDTYEGDPLNAFRITTPGFARIGQAIAGLALPTVLVQEGGYLSDELGENLATFLDGFCQHLEHHHHHH” it was “not soluble”.
